Legend:
[1] = target: T1, hPAR1 (Biotin) (human, biotin on the C-terminal lysine (GGGGSK-biotin, SKB)); experiment: ELISA, hybridoma supernatant
T1 construct: also called hPAR1 peptide
T1 peptide: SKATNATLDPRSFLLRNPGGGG

[2] = target: T2, hPAR3 (Biotin) (human, biotin on the C-terminal lysine (GGGGSK-biotin, SKB)); experiment: ELISA, hybridoma supernatant
T2 construct: also called hPAR3 peptide
T2 peptide: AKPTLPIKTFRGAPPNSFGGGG

[3] = target: T1, hPAR1 (Biotin); experiment: ELISA, biotinylated peptides on streptavidin plate
Protocol: (§1) Biotinylated peptides (hPAR1-4) were diluted in Wash buffer and allowed to bind to the blocked Streptavidin coated wells at 10 ug/ml (100 ul per well) for 1 hour at room temperature with gentle mixing. Wells were washed 3 times as above and purified anti-hPAR4 mAbs prepared at 10 ug/ml in Wash buffer were allowed to bind (100 ul/well) for 1 hour at room temperature with gentle mixing. The plate was washed 3 times as above and anti-mouse Fc conjugated to Alkaline phosphatase (AP) at 0.3 ug/ml (100 ul) was added to the wells for 1 hour as above. Wells were washed 3 times as above and developed with Alkaline Phosphatase substrate as described for the screening supernatant ELISA.
(§2) To further characterise the purified anti-hPAR4 mAb's the specificity of the mAbs to hPAR1, hPAR2, hPAR3 and hPAR4 biotinylated peptides was performed.

[4] = target: T2, hPAR3 (Biotin); experiment: ELISA, biotinylated peptides on streptavidin plate
Protocol: as §1, §2

[5] = target: T3, hPAR2 (Biotin) (human, biotin on the C-terminal lysine (GGGGSK-biotin, SKB)); experiment: ELISA, biotinylated peptides on streptavidin plate
T3 construct: also called hPAR2 peptide
T3 peptide: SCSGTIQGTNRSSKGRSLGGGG
Protocol: as §1, §2

[6] = target: T4, hPAR4 (Biotin) (human, biotin on the C-terminal lysine (GGGGSK-biotin, SKB)); experiment: SPR (Biacore T200), biotinylated hPAR4 peptide on SA chip, mAb as analyte
T4 construct: also called hPAR4 biotinylated peptide; Human PAR4 peptide (biotinylated)
T4 peptide: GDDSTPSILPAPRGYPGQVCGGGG

[7] = target: T4, hPAR4 (Biotin); experiment: SPR (Bio-Rad ProteOn XPR36), biotinylated peptide captured, antibody as analyte
[8] = target: T5, human PAR4 on isolated human platelets (human, UniProt Q96RI0 18-385); experiment: flow cytometry on isolated human platelets
T5 construct: Native receptor of donor platelets (genotypes AA, AT, TT at residue 120); also called hPAR4
T5 sequence: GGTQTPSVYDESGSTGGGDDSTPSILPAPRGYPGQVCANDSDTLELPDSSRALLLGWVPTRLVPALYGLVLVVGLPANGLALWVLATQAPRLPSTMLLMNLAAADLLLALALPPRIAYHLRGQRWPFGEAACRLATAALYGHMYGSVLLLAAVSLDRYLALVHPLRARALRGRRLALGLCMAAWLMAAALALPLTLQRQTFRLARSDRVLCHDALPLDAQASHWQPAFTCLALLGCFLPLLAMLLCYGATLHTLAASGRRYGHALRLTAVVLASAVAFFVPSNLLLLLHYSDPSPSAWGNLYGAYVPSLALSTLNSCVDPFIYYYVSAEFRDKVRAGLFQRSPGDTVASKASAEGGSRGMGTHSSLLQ

B1: 5F.RE6 (antibody, IgG2a, V domains shown)
VH: QVQLAESGGGVVQPGRSLRVSCAASGFTFSSYGMHWVRQAPGKGLEWVAVIWYDGTKKYYADSLKGRFTISRDNSKYTLYLQMNSLRADDTALYFCARKGARGITGLDYWGQGTLVTVSS
VL: DIQMTQSPSSLSASAGDRITITCRASQSISNYLNWYQQKPGKAPKLLIYAASSLQSGVPSRFSGSGSGTDFTLTISSLQPEDFASYYCRQNYNTPLTFGGGTKVEIK
notes: Human variable regions on mouse constant regions; isotype IgG2a/κ; Tested as parent hybridoma supernatant (MoB5F E6); also called 5F RE6.D3.E7; MoB5F E6
Question: Which results are given for B1?
Answer: Binding to PAR1 ratio [1]: 1.1 ratio; Binding to PAR3 ratio [2]: 0.8 ratio

B2: 5G.RG1 (antibody, IgG1, V domains shown)
VH: QVQLVESGGGVVQPGRSLRLSCVASGFTLSSYGMHWVRQAPGKGLEWVAVIWYDGSSKYYTDSVKGRFDISRDNSKNTLYLQMNILRAEDTAVYYCARETILIGGVPFDYWGQGTLVTVSS
VL: EIVLTQSPGTLSLSPGERATLSCGASQSIRSNYLAWYQQKPGQAPRLLIYGASSRATGTPDRFSGSGSGTDFTLTITRLEPEDFALYYCQQYGRSYTFGQGTKLEIK
notes: Human variable regions on mouse constant regions; isotype IgG1/κ; Tested as parent hybridoma supernatant (MoB5G G1); also called 5G RG1.D3.C2b; MoB5G G1
Question: For B2, which “Binding to PAR1 ratio” value [1] is on record?
Answer: 1.1 ratio

Question: And the “Binding to PAR3 ratio” value [2]?
Answer: 0.8 ratio

B3: 5H.RH4 (antibody, IgG2b, V domains shown)
VH: QVQLQQWGAGLLKPSETLSLTCAVYGGSFSNYYWSWIHQPPGKGLEWIGEINHSGSTNYNPSLKSRVTISVDTSKKQFSLNLSSVTAADTAVYYCKVEHSSSSGHYYYGMDVWGQGTTVTVSS
VL: DIQMTQSPSSLSASVGDRVTITCRASQTISYYLNWYQQKPGKAPKLLIYAASRLQSGVPSRFSGSGSGTDFTLTISSLQPEDFTTYYCQQSYSTPLTFGGGTKVGIK
notes: Human variable regions on mouse constant regions; isotype IgG2b/κ; Tested as parent hybridoma supernatant (MoB5H H4); also called 5H RH4.C8b.A3.A6; MoB5H H4
Question: For B3, which “Binding to PAR1 ratio” value [1] is on record?
Answer: 1 ratio

Question: And the “Binding to PAR3 ratio” value [2]?
Answer: 0.9 ratio

B4: 5H.RF2 (antibody, IgG2a, V domains shown)
VH: QVQLQQWGAGLLKPSETLALTCAVYGGSLSDYYWSWIRQPPGKGLEWIGEINHSGTTNYNPSLKSRVTISVDTSKKQFSLKLSSVTAADTAVYYCAIEYSNSRGYYYGMDVWGQGTTVTVSS
VL: DIQMTQSPSSLSASAGDRITITCRASQTISNYLNWYQQKPGKAPKLLIYAASSLQSGVPSRFSGSGSGTDFTLTISSLQPEDFASYYCRQNYNTPLTFGGGTKVEIK
notes: Human variable regions on mouse constant regions; isotype IgG2a/κ; also called 5H.RF2.A5b.D3.C2; MoB5H F2
Question: Does B4 bind [3]?
Answer: no binding (tested: 10 ug/ml)

Question: Does B4 bind [4]?
Answer: no binding (tested: 10 ug/ml)

Question: Does B4 bind [5]?
Answer: no binding (tested: 10 ug/ml)

Question: And the Kd [6]?
Answer: 0.61 nM

Question: And the koff [6]?
Answer: 0.00111 s⁻¹

Question: And the kon [6]?
Answer: 1.84e+06 M⁻¹ s⁻¹

Question: What about the “Binding to PAR1 ratio” value [1] of the same binder?
Answer: 1 ratio

Question: And the “Binding to PAR3 ratio” value [2]?
Answer: 0.9 ratio

B5: 5H.RD2 (antibody, IgG1, V domains shown)
VH: EVQLVESGGDLVKPGGSLRLSCSASGFTFFNTWMNWVRQAPGKGLEWVGRVKSKNDGGTKDYAAPVTGRFTISRDDSKDTLYLQMNSLKTEDTAVYYCTTDPHYDFWSAYWGQGTLVTVSS
VL: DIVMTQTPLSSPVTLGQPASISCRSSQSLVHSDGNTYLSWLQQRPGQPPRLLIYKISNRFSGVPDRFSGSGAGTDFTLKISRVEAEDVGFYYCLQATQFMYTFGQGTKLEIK
notes: Human variable regions on mouse constant regions; isotype IgG1/κ; also called 5H.RD2.A7b; MoB5H-RD2.A7b
Question: How did the “Binding to PAR1 ratio” value [1] turn out when B5 was run?
Answer: 1 ratio

Question: And the “Binding to PAR3 ratio” value [2]?
Answer: 0.9 ratio

B6: 5I.RG1 (antibody, IgG3, V domains shown)
VH: QVQLQQWGAGLLKPSETLSLACAISSGSFSTYFWRWIRQPPGKGLEWIGEIIHTGSTTYNPSLKSRVTISVDTSKNQLSLKLSSVTAADTAVYYCAFEYSSSGGYYYGMDVWGQGTTVTVSS
VL: DIQMTQSPSSLSASVGDRVTITCRASQSISSYLNWYQQIPGKAPNLLIYAASSLRSGVPSRFSGSGSGTDFTLTISSLQPEDFATYYCQQTYSTPLTFGGGTKVEIK
notes: Human variable regions on mouse constant regions; isotype IgG3/κ; also called 5I.RG1.D6.C1b; 51.RG1
Question: What does the source list for B6?
Answer: binding result [3]: no binding (tested: 10 ug/ml); binding result [4]: no binding (tested: 10 ug/ml); binding result [5]: no binding (tested: 10 ug/ml); Kd [6]: 0.36 nM; koff [6]: 0.000667 s⁻¹; kon [6]: 1.85e+06 M⁻¹ s⁻¹; Binding to PAR1 ratio [1]: 1 ratio; Binding to PAR3 ratio [2]: 1 ratio

B7: 5A.RC3 (antibody, IgG2a, V domains shown)
VH: QVQLVESGGGVVQPGRSLRLSCAASGFTLSNYGMHWVRQAPGKGLEWVSVIWYDGSNKHYADSVKGRFTISRDNSKNTLYLQMNSLRAEDTAVYYCARESIVEVLPPFDYWGQGTLVTVSS
VL: KIVLTQSPGTLSLSPGERVTLSCRASQRVRNNYLAWFQQKPGQAPRLFIYGASSRATGIPDRFSGSGSGTDFIFTISRLEPEDFAVYYCQQYGNSYTFGQGTKLEIK
notes: Human variable regions on mouse constant regions (HumAb mice); isotype IgG2a/κ; also called 5A.RC3.F10b.H4b; MoB5A-RC3.F10b.H4b
Question: Does B7 bind [3]?
Answer: no binding (tested: 10 ug/ml)

Question: Does B7 bind [4]?
Answer: no binding (tested: 10 ug/ml)

Question: Does B7 bind [5]?
Answer: no binding (tested: 10 ug/ml)

Question: What about the Kd [6] of the same binder?
Answer: 0.32 nM

Question: And the koff [6]?
Answer: 0.000417 s⁻¹

Question: What about the kon [6] of the same binder?
Answer: 1.32e+06 M⁻¹ s⁻¹

Question: And the Kd [7]?
Answer: ~0.4 nM

Question: And the “Binding to human platelets, FACS GMFI at 10 ug/ml (over isotype control)” value (from here on “Binding … (over isotype control)”) [8]?
Answer: 39 GMFI

B8: 5D.RH4 (antibody, IgG2a, V domains shown)
VH: QIQLVESGGGVVQPGRSLRLSCAASGFTFSSDGMHWVRQAPGKGLEWVAVIWFDGRNKYYLDSVKGRFTISRDNSKNTLYLQMNSLRAEDTAVYYCARESSISTRPPFDYWGQGTLVTVSS
VL: not shown
notes: Human variable regions on mouse constant regions; isotype IgG2a/κ; also called 5D.RH4.G7.E6.C7b.G7
Question: B8 was tested. Which “Binding … (over isotype control)” value [8] did it give?
Answer: 33 GMFI

B9: 5H.RA3 (antibody, IgG2a, V domains shown)
VH: QVQLVESGGGVVQPGRSLRVSCAASGFTFSSYGMLWVRQAPGKGLEWVAVIWYDGTKKYYADSLKGRFTISRDNSKYTLYLQMNSLRADDTALYFCARKGARGITGLDYWGQGTLVTVSS
VL: not shown
notes: Human variable regions on mouse constant regions; isotype IgG2a/κ; also called 5H.RA3.D3b.A2b; MoB5H A3
Question: How did the “Binding … (over isotype control)” value [8] turn out when B9 was run?
Answer: 100 GMFI

B10: 5F.RF3 (antibody, IgG2b, V domains shown)
VH: QVQLVQSGAEVKKPGASVKVSCKTSAYTFTNYGISWVRQAPGQGLEWMGWISPYNGNTNYAQKLQGRVTMTTDTSTRTAYMELRSLRSDDTAVYYCAREYNRSSRGRYYYYGMDVWGQGTTVTVSS
VL: EIVLTQSPGTLSLSPGERATLSCRASQSVSSNYLAWYQKKPGQAPRLLISGASSRATGIPDRFSGSGSGTDFTLTISRLEPEDFAVYYCQQYGSSPWTFGQGTKVEIK
notes: Human variable regions on mouse constant regions; isotype IgG2b/κ; also called 5F.RF3.A7b.C9; MoB5F-RF3.A7b.C9
Question: With B10 as the binder, how does the “Binding … (over isotype control)” value [8] read?
Answer: 53 GMFI

B11: 5G.RA1 (antibody, IgG2a, V domains shown)
VH: QVQLVESGGGVVQPGRSLRLSCAASGFTFSSYGMHWVRQAPGKGLEWVAVIWYDGSNKYYADSVKGRFTISRDNSKNTLYLQMNSLRAEDTAVYYCARETALVRGVPFDYWGQGTLVTVSS
VL: not shown
notes: Human variable regions on mouse constant regions; isotype IgG2a/κ; also called 5G.RA1.E10.G3; MoB5G A1
Question: For B11, which “Binding … (over isotype control)” value [8] is on record?
Answer: 25 GMFI

Source: patent US20210179707A1 (published 2021)
